Patent US5869336A, “Recombinant enzymatically active calpain expressed in a baculovirus system” (Cephalon, Inc., priority 1997, dated 1999)

T1: recombinant human calpain I (Homo sapiens, UniProt P07384)
T1 construct: the 2153 bp fragment containing the entire human 80 kDa calpain I cDNA; made in house; host or cells: Spodoptera frugiperda Sf21 cells, recombinant baculovirus (AcNPV-hCANPI-2-5, or coinfection with AcNPV-hCANP30-5 and AcNPV-hCANPI80-5)
T1 sequence (P07384 2-714): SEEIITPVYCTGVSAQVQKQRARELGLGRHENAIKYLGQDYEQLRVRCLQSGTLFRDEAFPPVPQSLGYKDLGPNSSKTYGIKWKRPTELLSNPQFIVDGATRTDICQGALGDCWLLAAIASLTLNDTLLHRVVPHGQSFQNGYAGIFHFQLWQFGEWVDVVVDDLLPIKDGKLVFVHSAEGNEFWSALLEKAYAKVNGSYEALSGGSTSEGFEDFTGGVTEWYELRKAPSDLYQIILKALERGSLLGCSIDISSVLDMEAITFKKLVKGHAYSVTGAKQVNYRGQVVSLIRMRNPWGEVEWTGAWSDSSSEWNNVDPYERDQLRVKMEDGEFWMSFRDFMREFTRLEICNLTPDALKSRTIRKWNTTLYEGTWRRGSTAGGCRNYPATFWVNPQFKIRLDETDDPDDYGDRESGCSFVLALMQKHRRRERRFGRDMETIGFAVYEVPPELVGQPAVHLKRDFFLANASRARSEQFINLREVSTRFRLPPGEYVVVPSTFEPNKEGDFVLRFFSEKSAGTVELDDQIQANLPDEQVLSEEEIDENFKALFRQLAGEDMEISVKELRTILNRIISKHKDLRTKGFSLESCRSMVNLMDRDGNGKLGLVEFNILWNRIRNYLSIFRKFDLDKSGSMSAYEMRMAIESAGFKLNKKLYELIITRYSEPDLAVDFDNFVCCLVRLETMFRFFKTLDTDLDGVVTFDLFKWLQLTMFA
T1 sequence (P04632 1-268 partner): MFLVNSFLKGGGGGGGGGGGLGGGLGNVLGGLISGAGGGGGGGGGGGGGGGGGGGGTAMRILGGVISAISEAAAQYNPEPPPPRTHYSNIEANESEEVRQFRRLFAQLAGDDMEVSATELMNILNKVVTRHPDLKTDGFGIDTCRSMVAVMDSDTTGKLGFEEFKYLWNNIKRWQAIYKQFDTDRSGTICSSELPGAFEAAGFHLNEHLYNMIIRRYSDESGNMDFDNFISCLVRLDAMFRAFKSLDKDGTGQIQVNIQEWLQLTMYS

B1: native human calpain I: partially-purified native human calpain I (protein, UniProt P07384 2-714; P04632 1-268, looked up)
Calpain-1 catalytic subunit: T1 sequence (P07384 2-714)
Calpain small subunit 1: T1 sequence (P04632 1-268 partner)
B2: recombinantly produced calpain: recombinant enzymatically active human calpain I, heterodimer of 80 kDa and 30 kDa subunits, expressed in a baculovirus-insect cell system (protein, UniProt P07384 2-714; P04632 1-268, looked up)
Calpain-1 catalytic subunit: T1 sequence (P07384 2-714)
Calpain small subunit 1: T1 sequence (P04632 1-268 partner)
B3: 80 kDa recombinant calpain I: recombinant 80 kDa subunit of human calpain I expressed in Sf21 cells infected with AcNPV-hCANPI80-5 (protein, UniProt P07384 2-714, looked up)
Calpain-1 catalytic subunit: T1 sequence (P07384 2-714)

Legend:
[1] = system: native human calpain I; assay: Calcium-dependent protease activity (Succ-Leu-Tyr-AMC), native calpain I; type: biochemical; details: 1 mM Succ-Leu-Tyr-AMC, 5 mM CaCl2; FIG. 5a
Experimental: (§1) Sf21 cells were again seeded in 24 well plates at 1.5×10^5 cells/cm^2 and infected with either wild-type virus, coinfected with both AcNPV-hCANP30-5 and AcNPV-hCANPI80-5 (MOI of 5 for each virus), or infected with AcNPV-hCANPI-2-5 (MOI=5.7). The intracellular proteins were harvested at 40 hours after infection with 100 μl/well of the following lysis buffer: 50 mM Tris-HCl, pH 7.5, 50 mM NaCl, 1 mM EDTA, 1 mM EGTA, 5 mM β-mercaptoethanol, 0.1% Triton-100, followed by a 10 minutes centrifugation at 14,000×g at 4° C. to pellet the nuclei and some membranes. The in vitro enzyme activity of 20 μl of each extract (12.5-20 μg of total protein) was measured using the synthetic peptide substrate succinyl-leucine-tyrosine-aminomethyl coumarin (Succ-Leu-Tyr-AMC) at a 1 mM concentration with and without the addition of 5 mM CaCl2 following the procedure of Sasaki et al., J. Biol. Chem., 259:12489-12494 (1984), incorporated herein by reference. The activity obtained was compared with the enzyme activity of 2 μg of partially-purified native human calpain I produced according to the method of Siman et al., supra.
(§2) The activity in the presence of calcium was also measured with the addition of 12.5 μM calpain inhibitor I following the procedure disclosed in Sasaki et al., supra. The results are depicted in FIGS. 5a-d. In FIGS. 5a-d, open circles represent activity without calcium present. […]

[2] = target: T1, recombinant human calpain I; assay: Calcium-dependent protease activity (Succ-Leu-Tyr-AMC), recombinant calpain in Sf21 cell extracts; type: biochemical
Experimental: as §1, §2

[3] = system: 80 kDa subunit of recombinant calpain I; assay: Autolytic processing of the 80 kDa subunit to the 76 kDa form (immunoblot); type: biochemical, human; details: 6.7 mM CaCl2, 5 minutes, room temperature
Experimental: The 76 kDa form is produced in the presence of calcium by autolytic cleavage and is indicative of active enzyme. Lysates from cells either infected with wild-type AcNPV, coinfected with both AcNPV-hCANP30-5 and AcNPV-hCANPI80-5 or infected with AcNPV-hCANPI-2-5 prepared in Example 5 were incubated with or without the addition of 6.7 mM
CaCl2 for 5 minutes at room temperature, stopping the reaction by adding 6.7 mM EDTA and boiling the samples in SDS-PAGE-gel-loading buffer prior to storage at -70° C. The results of PAGE of the preparations are depicted in FIGS. 6a and b. In FIGS. 6a and b, the presence and absence of calcium is indicated by a "+" or "-", respectively. […] A single band is detected in all the samples incubated with calcium (lanes 2,5, and 7), and it comigrates with the 76 kDa native human calpain I (lane 2) that has also been incubated with calcium.
FIG. 6b contains the results of an immunoblot analysis of the same samples as in 6a except that the AB#34 antibody used was generated against the first five amino acids at the N-terminus of the 76 kDa fragment (anti-LGRHEC); (Saido et al., J. Biochem. 111:81-96 (1992)). […] Both the small amounts of the endogenously-cleaved recombinant calpain I large subunit and the single abundant 76 kDa band after the addition of calcium are detected by this antiserum.

[4] = system: recombinant 80 kDa subunit of calpain I; assay: Enzymatic activity of independently expressed 80 kDa subunit (Succ-Leu-Tyr-AMC); type: biochemical, human
Experimental: as §1
To determine the relative activity of the recombinantly produced 80 kDasubunit, the enzymatic activity of the subunit was examined in unfractionated extracts from Sf21 cells infected with AcNPV-hCANPI80-5. […] The same amount of enzyme activity for both the recombinant 80 kDa subunit and the recombinant calpain was then run on SDS-PAGE and the amount of each was qualitatively determined by immunoblot analysis as described in Example 4 above. As determined therefrom, approximately 4- to 5-fold more isolated 80 kDa protein is needed to give activity equivalent to that of the heterodimeric protein. Thus, the specific activity of the 80 kDa recombinant calpain I was experimentally determined to be approximately 20-25% that of the heterodimeric calpain I. This is approximately seven times greater than that of the 80 kDa subunit dissociated from native calpain I (Kikuchi et al., supra).

| Molecule | calcium-dependent substrate hydrolysis [1] | calcium-dependent substrate hydrolysis ([2]; 1 mM Succ-Leu-Tyr-AMC, 5 mM CaCl2, FIGS. 5c, 5d) | specific activity compared with native calpain ([2]; data not shown) | autocatalytic activation by added calcium [3] | specific activity relative to heterodimeric calpain I ([4]; 80 kDa subunit alone vs recombinant heterodimer) | specific activity relative to 80 kDa subunit dissociated from native calpain I ([4]; comparison with Kikuchi et al.) | amount of protein needed to give activity equivalent to heterodimeric protein ([4]; isolated 80 kDa protein vs heterodimer) |
| --- | --- | --- | --- | --- | --- | --- | --- |
| B1 | calcium-dependent increase in substrate hydrolysis | – | – | – | – | – | – |
| B2 | – | calcium-dependent increase in substrate hydrolysis | similar | correctly autoprocessed the 80 kDa subunit to the "activated" 76 kDa form | – | – | – |
| B3 | – | – | – | entire amount of the 80 kDa subunit recombinant protein is capable of being autocatalytically activated | 20-25% | approximately seven | 4- to 5 fold |
